To fix the notation:
B1: TPR t1 (parent)
chain: GACCAAUCUGCCCUCAGAGCUCGAGAACAUCUUCGGAUGCAGAGGAGGCAGGCUUCGGUGGCGCGAUAGCGCCAACGUCCUCAACCUCCAAUGCAUCCCACCACAUGAUGAUGCCUGAAGAGCCUUGGUUUUUUG

The variants in this data set derive from B1. Put plainly: polymerase ribozyme fitness, log enrichment relative to wild type (log ratio); higher = more active; in vitro selection for triplet polymerase activity. A digest of the protocol:
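Mutant libraries of both subunits of a heterodimeric triplet polymerase ribozyme were PCR-built, transcribed, and selected once in triplicate, with frozen incubation at −7 °C and capture of gel-excised extended constructs on streptavidin beads before RT-PCR. Illumina sequencing of input and output libraries was filtered to genotypes with ≥10 input reads and ≥1 read per output. Fitness is the logarithm of genotype enrichment over wild-type enrichment, using inverse-variance-weighted replicate averages. The logarithm is base 2.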
For GACCAAUCUGCCCUCAGAGCUCGAGAACAUCUUCGGAUGCAGAGGAGGCAAGUUUCGGUGGGGCGAUAUCGCCAACGUCCUUAACCUCCAAUGCAUCCCACCACAUGAUGAUGCCUGAAUAGCCUUGGUUUUUUG, the “polymerase ribozyme fitness (log ratio)” value is -6.98.

For the variant GACCAAUCUGCCCUCAGAGCUCGAGAACAUCUUCGGAUGCAGAGGAGCCAGGCUUCGGUGGCGCGAUAGCGCCAACGUCCUCAACCUCCAAUGCAUCCCACCACAUGAUGAUGCCUGAAGAGCCUUGGUUAUUUG, the “polymerase ribozyme fitness (log ratio)” value is -1.82.

GACCAAUAUGCCCUCAGAGCUCGAGAACUUCUUCGGAUGCAGAGGAGGCAGGCUUCGGUGGCGCGAUAGCGCCAACGUCCUCAACCUCCAAUGCAUCCCACCACAUGAUGAUGCCUGAAGAGCCUUGGUUUUUUG: the “polymerase ribozyme fitness (log ratio)” value was -1.13.

For the variant GACCAAUCUGCCCUCAGAGCUCGAGAACAUCUUCGGAUGCAGAGAAGGCAGGCUUCGGUGGUGCGAUAGCGCCAACGUCCUCAACCUCCAAUGCAGCCCACCACAUGAUGAUGCCUGAAGAGCCUUGGUUUUUUG, the “polymerase ribozyme fitness (log ratio)” value is -1.28.

GACCAAUCUGCCCUCAGAGCUCGAGAAGAUCUUCGGAUGCAGAGGAGGCAGGCUUCGGUGGCGCGAUAGCGCCAACGUCCUCAACCUCCAAUGCAUCCCACCACAUGAUGAUGCCUGAACAGCCUUGGUUUUUUG: the “polymerase ribozyme fitness (log ratio)” value was -1.89.

For the variant GACCAAUCUGCCCUCAGUGCUCGAGAACAUCUUCGGAUGCAGAGGAGGCAGGCUUCGGUGGGGCGAUAGCGCCAACGUCCUAAACCUCCAAUGCAUCCCACCACAUGAUGAUGACUGAAGAGCCUUGGUUAUUUA, the “polymerase ribozyme fitness (log ratio)” value was -4.32.

On to GACCAAUCUGCCCUCAGAGCUCGAGAACAUCUUCGGAUGCAGAGGAGGCAGGCUUCGGUGACGCGAUAGCGCCAACGUCCUCAACCUCCAAUGCAUCCCACCACAUGAUGAUGCCUGAAGAGCUUUGGUUUUUUG, for which the “polymerase ribozyme fitness (log ratio)” value came to 1.51.

With GACCAAUCUGCCCUCAGAGCUCGAGAACAUCUUCGGAUGCAGAGGAGGCAGGCUUCGGUGGCGCGAUAGCGCCAACGUCCUCAACCUCCAAUGCAUUCCACCACAUGAUGAUGCCUGAACAGCCUUGGUUUUUUG, the “polymerase ribozyme fitness (log ratio)” value was 0.554.

For GACCCAUCUGCCCUCAGAGCUCGAGAACAUCUUCGGAUGCAGAGGAGUAAGGCUUCGGUGGCGCGAUAGCGCCAACGUCCUCAACCUCCAAUGAAUCCCACCACAUGAUGAUGCCUGAAGAGCCUUGGUUUUUUG, the “polymerase ribozyme fitness (log ratio)” value is -2.25.

GACCAAUCUGCCCUCAGAGCUCGGGAACAUCUUCGGAUGCAGAGGAGGCAGGCUUCGGUGGCGCGAUAGCGCUAACGUCCUCAACCCCCAAUGCAUCCCACCACAUGAUGAUGCCUGAAGAGCCUUGGUUUUUUG: the “polymerase ribozyme fitness (log ratio)” value was -1.49.

As for GACCAAUCUGCCCUCAGAGCUCGAGAACAUCUUCGGAUGCAGAGGUGGCAGGCUUCGGUGGCGCGAUAGUGCCAACGUCCUCAACCUCCAAUGCAUCCCACCACAUGAUGAUGCCUGAAGAGCCUUGGUUUUUUG, the “polymerase ribozyme fitness (log ratio)” value is -1.31.

On to GACCAAUCUGCCCUCAGAGCUCGAGAACAUCUUCGGAUGCAGAGGAGGCCGGCUUCGGUGGCGCGAUAGCGCCAACGUCCUCAACCUCCAAUGCAUCCCACCACAUGAUGCUGCCUGAAGAGCCUUGGUUUUUUG, for which the “polymerase ribozyme fitness (log ratio)” value came out at 0.0167.

Turning to GACCAAUCUGCCCUCAGAGCUCGAGAACAUCUUCGGAUGGAGAGGAGGCAGGCUUCGGUGGCGCGAUAGCGCCAACGUCCUCAACCUCCAAUGCAUCCCACAACAUGAUGAUGCCUGUAGAGCCUUGGUUUUUUG, the “polymerase ribozyme fitness (log ratio)” value is -2.92.

As to GACCAAUCUGCCAUCAGAGCUCGAGAUCAUCUUCGGAUGCAGAGGAGGCAGGCUUCGGUGGCGCGAUAGCGCCAACGUCCUCAACCUCCAAUGCAUCCCACCACAUGAUGAUGCCUGAAGAGCCUUGGUUUUUUG, the “polymerase ribozyme fitness (log ratio)” value is -3.33.

In the case of GACCAAUCUGCCCUCAGAGCUCGAGAAGAUCUUCGGAUGCAGAGGAGGUAGGCUUCGGUGGCGCGAUAGCGCCAACGUCCUCAACCUCCAAAGCAUCCCACCACAUGAUAAUGCCUGAAGAGCCUUGGUUUUUUG, the “polymerase ribozyme fitness (log ratio)” value is -5.35.

On to GACCAAUCUGCCCUCAGAGCUCGAGAACAUCUUCGGAUGCAGAGGAGGCAGGGUUCGGUGGCGUGAUAGCGCCAACGUCCUCAACCUCCAAUGCAUCCCACCACAUGAUUAUGCCUGAAGAGCCUUGAUUUUAUG, for which the “polymerase ribozyme fitness (log ratio)” value is -5.27.

In the case of GACCAAUCUGCCCUGAGAGCUCGAGAACAUCUUCGGAUGCAGAGGAGGCAGGCUUCGGUGGCGCGAUAGCGCCAACGUCCUCAAGCUCCAAUGCAACCCACCACAUGAUGAUGACUCAAGAGCCUUGGUUUUUUG, the “polymerase ribozyme fitness (log ratio)” value was -3.58.

As for GACCAAUCUGCCCUCAGAGCUCGAGAACAUCUUCGGAUGCAGAGGAGGCAGGCUUCGGUGGCGCGAUAGCGCUAUCGUCCUCAACCACCAAAGCAUCCCACCACAUGAUGAUGCCUGAAGAGCCUUGGUUUUUUG, the “polymerase ribozyme fitness (log ratio)” value is -4.13.

With GACCAAUCUGCCCUCAGAGCUCGAGAACAUCUUCGGAUGCAGAGGAGGCAGGCUCCGGUAGCGCGAUAGCGCCAACGUCCUAAACCUCCAAUGCAUCCCACCACAUGAUGAUGCCUGAAGAGCCUUGGUUUUUUG, the “polymerase ribozyme fitness (log ratio)” value was -0.172.

On to GACCAAUCUGCCCUCAGAGCUCGAGAACAUCUUCGGAUACAGAGGAGGCAGGCUUGGGUGGCGCGAUAGCGCCAACGUCCUCAACCUCCAAUGCAUCCCACCACAUGAUGAUGCCUGAAGAGCCUUGGUUUUUUG, for which the “polymerase ribozyme fitness (log ratio)” value was -1.24.

Regarding GACCAAUCUGCCCUAAGAGCUCGAGAAUAUCUUCGGAUGCAGAGGAGGCAGGCUUCGGUGCCGCGAUAGCGCCAACGUCCUCAACCUCCAAUGCAUCCCACCACAUGAUGAUGCCUGAAGAGCCUUGGUUUUUUG, the “polymerase ribozyme fitness (log ratio)” value was -5.32.

For the variant GACCAAUCUUCCCUCAGAGCUCGAGAACAUCUUCGGAUGCAGAGGAGGUAGGCUUCGGUGGCACGAUAGCGCCAACGUCCUCAACCUCCAAUGCAUCCCCCCACAUGAUGAUGCCUGAAGAGCCUUGGUUUUUUG, the “polymerase ribozyme fitness (log ratio)” value was -3.83.

As to GACCAAUCUGCCCUCAGAGCUCGAGAACAUCUUCGGAUGCAGAGGAGGCAGGCUUCGGUGGCGCGAUAGCCCCAACGUCCACAACCUCCAAUGCAUCCCACCACAUGAUGAUGCCUGAAUAGCCUUGGUUUUUUG, the “polymerase ribozyme fitness (log ratio)” value is -1.99.

On to GACCAAUCUGGCCUCAGAGCUCGAGAACAUCUUCGGAUGCAGAGGAGGCAGGCUUCGGAGGCGCGAUAGCGCCAACGUCCUCAAACACCAAUGCAUCCCACCACAUGAUGAUGCCUGAAGAGCCUUGGUUUUUUG, for which the “polymerase ribozyme fitness (log ratio)” value was -1.45.

With GACCAAUCUGCCCUCAGAGCUCGAGAACAUCUUCGGAUGCAGAGUAGGCAGGCUUCGGUGGCGCGAUAGCGCUAACGUCCUCAACCUCCAAUGCAUCCCACCACAUGAUGAUGCCUGAAGAGCCUUGGUUUUUUG, the “polymerase ribozyme fitness (log ratio)” value is -1.98.

Turning to GACCAAUCUGCCCUCAGAGCUCGAGAACAUCUUCGGAUGCAGAGGAGGCAGGCUUCGGUGGCGCGAUAGCGCCAAUGUCCUCAACCUCCAGUGCAUCCCACCACAUGAUGAUGCCUGAAGAGCCUUGGUUUUUUG, the “polymerase ribozyme fitness (log ratio)” value was -2.17.

GACCAAUCUGCCCUCAGAGCUCGAGAACAUCUUCGGAUGCAGAGGAGGCAGGCUUCGGUGGUGCGAUAGCGCCAACGUCCGCAACCUCCAAUGCAUCCCACCACAUGAUGAUGCCUGAAGAGCCUUGGUUUUUUG: the “polymerase ribozyme fitness (log ratio)” value is -3.67.

On to GACCAAUCUGCCCUCAGAGCUCGAGAACAUCUUCGGAUGCAGAGGAGGCAGGCUUCGGCGGCGCGAUAGCGCCAACGUCCUCAACCUCCAAUGCAUCCCACCACAUGAUUAUGCCUGAAGAGCCUUGGUUUUUUG, for which the “polymerase ribozyme fitness (log ratio)” value was -1.54.

GACCAAUCUGCCCUCAGAGCUCGAGAACAUCUUCGGAUGCGGAGGAGGCAGGCUUCGGUGGCGCGAUAGCGCCAACGUCCUCAACCUCCAAUGCAUCCCACCACAUGAUAAUGCCUGAAGAGCCGUGGUGUUUUG: the “polymerase ribozyme fitness (log ratio)” value was -2.05.

Turning to GACCAAUCUGCCCUCAGAGCUCGAGAACAUCUUCGGAUGCAGAGGAGGCAGGCUUCGGUGGCGCGAUAGCGCCAACGUCCUCAACCUCCAAUGCAUCCCACCACAUGAUGUUGCCUGAAGUGCCUUGGAUUUUUC, the “polymerase ribozyme fitness (log ratio)” value was -2.04.

GACCAAUCUGCCCUCAGAGCUCGAGAACAUCUUCGGAAGCGGAAGAGGCAGGCUUCGGUGGCGUGAUAGCGCCAACGUCCUUAACCUCCAAUGCAUCCCACCACAUGAUGAUGCCUGAAGAGCCUUGGUUUUUUG: the “polymerase ribozyme fitness (log ratio)” value is -4.14.

As for GACCAGUCUGCCCUCAGAGCUCGAGAACAUCUUCGGAUGCAGAGGAGGCAGGCUUCGGUGGCGCGAUAGCGCUAACGUCCUCAACCUCCAAUGCAUCCCACCACAUGAUGAUGCCUCAAGAGCCUUGGUUUUUUG, the “polymerase ribozyme fitness (log ratio)” value is -2.3.

Turning to GACCAAUCUGCCCUCAGAGCUCGAGAACAUCUUCGGAUGCAGAGGAGGCAGGCUUCGGUGGCGCGAUAGCGCCAACGUCAUCAACCUCCAAUGCAUCCCACCACAUGAUGAUGCCUGAAGCGCCUUGGUUUUUUG, the “polymerase ribozyme fitness (log ratio)” value is -1.11.

On to GACCAAUCUGCCCUCAGAGCUCGAGAACAUCUUCGGAUCCAGAGGAGGCAGGCUUCGGUGGCGCGAUAGCGCCAACGUCCUCAACCUCCAAUGCAUCCCACCACAUGAUGAUGCCUGAAGAGCCUUGGUUUUUUG, for which the “polymerase ribozyme fitness (log ratio)” value is -0.776.

Regarding GACCAAUCUGCCCUCAGAGCUCGAGAACAUCUUCGGAUGCAGAGGAGGCAGCCUUCGGUGACGCGAUAGCGUCAACGUCCUCAACCUCCAAUGCAUCCCACCACAUGAUGAUGCCUGAAGAGCCUUGGUUUUUUG, the “polymerase ribozyme fitness (log ratio)” value was -0.0205.

Consider GACCAAUGUGCCCUCAGAGCUCGAGAACAUCUUCGGAUGCAGAGGAGGCAGGCUUUGGUGGCGCGAUAGCGCCAACGUCCUCAACCUCCAAUGCAUUCCACCACAUGAUGAUGCCUGAAGAGCCUUGGUUUUUUG, for which the “polymerase ribozyme fitness (log ratio)” value came to 0.547.

Turning to GACCCAUCUGCCCUCAGAGCUCGAGAACAUCUUCGGAUGCAGAGGAGGCAGGCUUCGGUGGCGCGAUAGCGCCAACGUCCUCAACCUCCAAUGCAACCCACCACAUGAUGAUGCCUGAAGCGCCUUGGUUUUUUG, the “polymerase ribozyme fitness (log ratio)” value is 0.399.

Regarding GAUCAAUCUGCCCUUAGAGCUCGAGAACAUCUUCGGAUGCAGAGGAGGCAGGCUUCGGUGGCACGAUAGCGCCAACGUCCUCAACCUCCAAUGCAUCCCAACACAUGAUGAUGCCUGAAGAGCCUUGGUUUUUUG, the “polymerase ribozyme fitness (log ratio)” value was -3.66.

GACCAAUCUGCCCUCAGAGCUCGAGAACAUCUUCGGAUGCAGAGGAGGCAGGCUUCGGUGGCGAGAUAGCGCCAACGUCCUCAACCUCCAAUGCAUCCCACCACAUGAUGAUGCCUAAAGAGCCUUGGUUUUUUG: the “polymerase ribozyme fitness (log ratio)” value is -6.29.

Turning to GACCAAUCUGCCCUCAGAGCUCGAGAACAUCUUCGGAUGCAGAGGAGGCAGGCUUCCGUGGCGCGAUAGCGCCAACGUCCUCAACCUCUAAUGCAUCCCACCACAUGAUGAUGCCUGAACAGCCUUGGUUUUUUG, the “polymerase ribozyme fitness (log ratio)” value is -1.28.

As to GACCAAUCUGCCCUCAGAGCUCGAGAUCAUCUUCGGAUGCAGAGGAGGCAGGCUUCGGUGGCGCGAUAGCGCCAAUCUCCUCAACCUCCAAUGCAUCCCACCACAUGAUGAUGCCUGAAGAGCCUUGGUUUUUUG, the “polymerase ribozyme fitness (log ratio)” value is -3.99.

Regarding GACCAAUCUGCCCUCAGAGCUCGAGAACAUCUUCGGAUGCAGAGGAGGCAGGCUUCGGUGUCGCGAUAGCGCCAACGUCCUCAACCUCCAAUGCAUCCCACCACAUGAUGAUGCCUGAAGAGGCUUGGUUUUUUG, the “polymerase ribozyme fitness (log ratio)” value is 1.2.

The values above are taken from the RNAGym collection of RNA variant scans (doi:10.1073/pnas.2313332121).
